Laboratory results as given in article PMC7021487.

Target: GFP Pavarotti co-expressed with exogenous Trc (greater pool phosphorylated at S745) (D. melanogaster)
Assay: co-IP; GFP Pavarotti (WT, S745A, or WT with co-expressed Trc) over-expressed in HEK 293 FT cells; lysate in coIP buffer (50 mM Tris pH 7.5, 150 mM NaCl, 1.5% Triton X-100, 1 mM EDTA, 1 mM NaVO3); precipitated with GFP-Trap-M (single chain anti-GFP) beads, washed 3x; blot for endogenous 14-3-3

increase of the co-precipitated interaction against GFP Pavarotti without Trc: 60%
Substance: endogenous 14-3-3 ξ (HEK 293 FT cells) (from UniProt P63104 1-245) (natural protein)
